B1: rINTL-1: Recombinant human IntL-1 (intelectin-1), FLAG-tagged in the cell binding test (protein)
chain: TDEANTYFKEWTCSSSPSLPRSCKEIKDECPSAFDGLYFLRTENGVIYQTFCDMTSGGGGWTLVASVHENDMRGKCTVGDRWSSQQGSKAVYPEGDGNWANYNTFGSAEAATSDDYKNPGYYDIQAKDLGIWHVPNKSPMQHWRNSSLLRYRTDTGFLQTLGHNLFGIYQKYPVKYGEGKCWTDNGPVIPVVYDFGDAQKTASYYSPYGQREFTAGFVQFRVFNNERAANALCAGMRVTGCNTEHHCIGGGGYFPEASPQQCGDFSGFDWSGYGTHVGYSSSREITEAAVLLFYR
B2: mAb476: galF-specific monoclonal antibody, VH domain of SEQ ID NO:9 and VL domain of SEQ ID NO:10 (antibody, V domains shown)
VH: EVQLEESGGGLVQPGGSLRLSCATSGFTFSDFYMEWVRQTPGERLEWIAASRNKANDYTAEYSASVKGRFTVFRDTSQNILYLQMNALRAEDTAAYYCARDADYGKTFSWYFDVWGAGTTVTVSS
VL: DIVMTQDELSNPVTSGESVHISCRSSKSLLYKDGKTYLNWFLQRPGQSPQLLIYLMSTRASGVSDRFSGSGSGTDFTLEISRVKAEDVGVYYCQQLVEYPLTFGAGTKLELK

How the values were obtained:
[1] = system: Aspergillus ethanol precipitate (EP); assay: rIntL-1 binding to Aspergillus ethanol precipitate, ELISA; conditions: buffer with 10 mM CaCl2
Procedure: Wells of a microtiter plate were coated with 10 μg/ml of EP antigen and blocked with a blocking buffer containing 0.1% BSA in IntL-ELISA buffer (20 mM HEPES pH7.4; 150 mM NaCl; 10 mM CaCl2); 0.1% Tween-20. Ref: Wesener et al. (2015) Nature Structural & Molecular Biology, 22(8):603). Recombinant human IntL-1 (rintL-1) was serially diluted tenfold in blocking buffer starting at 10^−6 M, and incubated on the EP-coated plate for 2 h at 30° C., followed by washes with IntL-ELISA buffer. The bound IntL was detected by an anti-omentin Rabbit IgG ab (Millipore) diluted 1:1000 in blocking buffer and incubated at 30° C. for 2 h. Wells were again washed and incubated with a goat anti-Rabbit IgG-AP at 1:1000 for 1 h at 30° C. Following another wash, the color was developed by AP substrate for 30 minutes at 37° C.
Conidia from Aspergillus fumigatus were counted and adjusted to 10^6/mL in Sabouraud's Dextrose broth, and grown for 6 hours at 37° C. to germinate (forming hyphae). The collection of swollen, germinating conidia and growing hyphae from already-germinated conidia were killed with heat at 90° C. for 1 h. The fungal material (killed conidia and hyphae) was pelleted by centrifugation, resuspended in IntL-ELISA blocking buffer, and incubated with 10^−7 M rIntL-1 (FLAG-tagged) in presence of 10 μg/mL of either MAb476 or an irrelevant, isotype control antibody mouse IgM for 2 h at 30° C. […]

[2] = system: Aspergillus fumigatus conidia and hyphae; assay: rIntL-1 binding to conidia and hyphae, fluorescence microscopy
Procedure: Conidia from Aspergillus fumigatus were counted and adjusted to 10^6/mL in Sabouraud's Dextrose broth, and grown for 6 hours at 37° C. to germinate (forming hyphae). The collection of swollen, germinating conidia and growing hyphae from already-germinated conidia were killed with heat at 90° C. for 1 h. The fungal material (killed conidia and hyphae) was pelleted by centrifugation, resuspended in IntL-ELISA blocking buffer, and incubated with 10^−7 M rIntL-1 (FLAG-tagged) in presence of 10 μg/mL of either MAb476 or an irrelevant, isotype control antibody mouse IgM for 2 h at 30° C. Following washes with IntL-ELISA buffer, the material was resuspended in IntL-ELISA blocking buffer and incubated with a 1:50 diluted anti-FLAG tag antibody conjugated to the red fluorochrome phycoerythrin (PE). Again, after washes, the stained material was resuspended in IntL-ELISA blocking buffer, transferred to chamber slides and observed under a fluorescent microscope. The inventors performed experiments wherein Aspergillus ethanol precipitate and whole cells (conidia and hyphae) were exposed to rIntL-1 and then a sandwich assay using Rabbit polyclonal antibodies to INTL-1 and goat anti-rabbit antibodies with a fluorescent ligand were performed in buffer comprising 10 mM CaCl2). […] Thus, IntL-1 could be the competitive agent which is interfering with the inventors' antibodies to galF.

[3] = Western blot of urine with mAb476; assay type: binding, human
Procedure: Studies were performed using urine collected from control patients (pooled) and patient who had Aspergillus infection (VU7). The samples were run in a reducing SDS polyacrylamide gel electrophoresis (PAGE), and the resolved proteins were transferred to a nylon membrane for performing a Western Blot. Some samples used concentrated urine (denoted by “c”) using an Amicon concentrator or were pretreated by desalting columns (denoted by “ds”).

[4] = Immunoprecipitation of urine with mAb476-coated dynabeads; assay type: binding, human; conditions: normal urine
Procedure: Studies were performed to identify the proteins that are bound by mAb476 after immunoprecipitation, using mass spectrophotometry. To enrich sample detection of moieties specifically binding to mAb476, urines were incubated with superparamagnetic dynabeads coated with mAb476 and a mouse control antibody. mAb476 reactive material was eluted with 50 mM glycine (pH 2.5-3.0). […] Reactivity to mAb476 eluates was confirmed by sandwich ELISA. Eluates were then run on SDS-PAGE gels to check for band patterns, and in-solution mass spectrometry analysis was performed. Analysis detected the microbial antigen CelA/Aspf7 (a galF-containing 0-glycan).

Molecule	binding to Aspergillus ethanol precipitate [1]	binding to whole cells (conidia & hyphae) ([2]; 10^−7 M FLAG-tagged rIntL-1, heat-killed Af293 conidia and hyphae)	effect on cellular rINTL-1 binding (galF recognition) ([2]; 10 μg/mL antibody with 10^−7 M rIntL-1)	reactive bands in Western blot ([3]; healthy human pooled urine)	molecular weight of reactive bands in Western blot ([3]; urine from patients with aspergillosis)	binding in immunoprecipitation [4]
B1	bound Aspergillus ethanol precipitate with high affinity	binds to whole cells				
B2			GalF recognition is reduced	no reactive bands	26 to 35 kDa	No mAb476 binding occurred
